We go through one protein from PMC7317968, “A GM1b/asialo‐GM1 oligosaccharide‐binding R‐type lectin from purplish bifurcate mussels Mytilisepta virgata and its effect on MAP kinases” (The Febs Journal, 2019).

This series deals with the molecule itself. The series can be described thus: AUC; sedimentation velocity, sample about 1.0 mg/mL, 50 mM potassium phosphate pH 7.4, 0.1 M NaCl, 293 K, c(s) analysis in SEDFIT converted to c(M); native mass 30 kDa.

B1: Mytilisepta virgata R-type lectin SeviL (natural protein, UniProt A0A646QV53 1-129, looked up)
chain: MSSVTIGKCYIQNRENGGRAFYNLGRKDLGIFTGKMYDDQIWSFQKSDTPGYYTIGRESKFLQYNGEQVIMSDIEQDTTLWSLEEVPEDKGFYRLLNKVHKAYLDYNGGDLVANKHQTESEKWILFKAY
notes: SeviL (variant SeviL-1), R-type (ricin B-type) lectin of Mytilisepta virgata, 129 amino acids, 15 kDa; Native protein isolated from tissue; also called SeviL-1; mytvir1; source: purified from Mytilisepta virgata mantles and gills (lactosyl-agarose column, eluted with 50 mM lactose)
Take B1: the “stoichiometry N” value was found to be 2.

For orientation: stoichiometry N means the number of molecules, sites or subunits per partner or assembly.
